Measurements from US20250163162A1 (SYNTHEKINE, published 2025).

T1: cIL2Rg-Fc (lot#P210115SV5) (cynomolgus, UniProt A0A2K5VGJ6 23-262)
T1 construct: Named only by lot number; also called cynomolgus IL2Rg-Fc; not shown: Fc of the fusion protein
T1 sequence: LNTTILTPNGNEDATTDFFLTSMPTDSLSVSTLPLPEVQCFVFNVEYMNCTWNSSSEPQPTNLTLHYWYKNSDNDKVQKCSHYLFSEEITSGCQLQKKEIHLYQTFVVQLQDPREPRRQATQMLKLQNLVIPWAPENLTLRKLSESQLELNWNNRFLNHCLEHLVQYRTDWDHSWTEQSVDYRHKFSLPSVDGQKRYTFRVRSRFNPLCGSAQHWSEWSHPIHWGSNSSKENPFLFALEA

T2: hIL2Rg-Fc (SinoBiological cat#10555) (human, UniProt P31785 23-254, limits assumed)
T2 construct: Bought Fc fusion (SinoBiological cat#10555); P31785 is printed for hCD132 in the background; also called human IL2Rg-Fc; not shown: Fc of the bought fusion protein
T2 sequence (looked up): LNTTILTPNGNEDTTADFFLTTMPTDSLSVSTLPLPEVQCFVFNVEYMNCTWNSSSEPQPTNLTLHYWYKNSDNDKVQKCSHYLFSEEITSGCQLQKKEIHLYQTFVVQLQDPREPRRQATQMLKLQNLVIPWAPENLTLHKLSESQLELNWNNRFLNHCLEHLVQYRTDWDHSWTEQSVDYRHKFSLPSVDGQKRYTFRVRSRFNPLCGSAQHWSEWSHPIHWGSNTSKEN


How the values were obtained:
[1] = biological target: T1, cIL2Rg-Fc (lot#P210115SV5); assay: SPR (Biacore T200), Fc-fused ligand captured on chip, dual VHH as analyte, 1:1 Langmuir fit
Protocol: (§1) All experiments were conducted in 10 mM Hepes, 150 mM NaCl, 0.05% (v/v) Polysorbate 20 (PS20) and 3 mM EDTA (HBS-EP+ buffer) on a Biacore T200 instrument equipped with Protein A or CAP biotin chips (Cytiva). For experiments on Protein A chips, Fc-fused ligands were flowed at 5 μl/min for variable time ranging from 18 to 300 seconds, reaching the capture loads listed in the tables below. Following ligand capture, injections of a 2-fold dilution series of analyte typically comprising at least five concentrations between 1 μM and 1 nM were performed in either high performance or single cycle kinetics mode. Surface regeneration was achieved by flowing 10 mM glycine-HCl, pH 1.5 (60 seconds, […]). Buffer-subtracted sensograms were processed with Biacore T200 Evaluation Software and globally fit with a 1:1 Langmuir binding model (bulk shift set to zero) to extract kinetics and affinity constants (kₐ, kd, KD). RMAX<100 RU indicates surface density compatible with kinetics analysis. Experiments on CAP chips were performed as described above with an additional capture step of Biotin CAPture reagent (10 seconds, 40 uL/min) performed prior to capture of biotinylated ligands. Calculated Rmax were generated using the equation Rmax=Load (RU) x valency of ligand x (Molecular weight of analyte/Molecular weight of ligand. Surface activity was defined as the ratio experimental/calculated Rmax. The results of these experiments are provided in below for sample information and experimental results.

[2] = biological target: T2, hIL2Rg-Fc (SinoBiological cat#10555); assay: as above
Protocol: as §1

[3] = biological target: T1, cIL2Rg-Fc (lot#P210115SV5); assay: SPR (Biacore T200); ratio experimental/calculated Rmax
[4] = biological target: T2, hIL2Rg-Fc (SinoBiological cat#10555); assay: as above

| Kd [1] [nM] | koff [1] [s⁻¹] | kon [1] [M⁻¹ s⁻¹] | Kd [2] [nM] | koff [2] [s⁻¹] | kon [2] [M⁻¹ s⁻¹] | Surface Activity [3] [%] | Surface Activity [4] [%] | Binder |
| --- | --- | --- | --- | --- | --- | --- | --- | --- |
| 13.4 | 0.0048 | 360000 | 16.6 | 0.0057 | 340000 | 1 | 5 | DR471(DR241-DR231) (bispecific antibody, Anti-hIL10Ra/hIL2Rg dual VHH with ASH6 handle; also called G3) QVQLQESGGGSVQAGGSLRLSCAASGYSNCSYDMTWYRQAPGKEREFVSAIHSDGSTRYADSVKGRFFISQDNAKNTVYLQMNSLKPEDTAMYYCKTDPLHCRAHGGSWYSVRANYWGQGTQVTVSSGGGSQVQLQESGGGSVQAGGSLRLSCTASGFTFDDREMNWYRQAPGNECELVSTISSDGSTYYADSVKGRFTISQDNAKNTVYLQMDSVKPEDTAVYYCAADFMIAIQAPGAGCWGQGTQVTVSSASHHHHHH |
| 41.3 | 0.0033 | 79000 | 21.5 | 0.042 | 2e+06 | 7 | 5 | DR442(DR236-DR232) (bispecific antibody, Anti-hIL10Ra/hIL2Rg dual VHH with ASH6 handle; also called F7) QVQLQESGGGSVQAGGSLRLSCAASRFTYSSYCMGWFRQAPGKEREGVASIDSDGSTSYTDSVKGRFTISKDNAKNTLYLQMNSLKPEDTAMYYCALDLMSTVVPGFCGFLLSAGMDYWGKGTQVTVSSGGGSQVQLQESGGGSVQAGGSLRLSCVASGYTSCMGWFRQAPGKEREAVATIYTRGRSIYYADSVKGRFTISQDNAKNTLYLQMNSLKPEDIAMYSCAAGGYSWSAGCEFNYWGQGTQVTVSSASHHHHHH |
